Assay results from PMC3325269, “Non-Agonistic Bivalent Antibodies That Promote c-MET Degradation and Inhibit Tumor Growth and Others Specific for Tumor Related c-MET” (PLoS ONE, 2012).

B1: LMH 87 (antibody, V domains shown)
VH: QVQLQQSGPELVKSGASVKMSCKASGNTLKDDHVHWVKQRPGQGLEWIGWIYPGGGRTRYNEKFKGKTTLTADKPSSTVNMLLSSLTSEDSAIYFCTNLVFDVWGAGTTVTVSS
VL: DIVMTQAAPSVPVTPGESVSISCRSSKSLLHSNGNTYLYWFLQRPGQSPQVLIYRMSNLASGVPDRFSGSGSGTAFTLRIRRVEAEDVGVYYCMQNLEYPFTFGGGTKLEIK
notes: VH domain; heavy chain constant region of a mouse IgG; VL (Vk) domain; light chain constant region of a mouse antibody (the methods call the variable segment Vk); Intact bivalent mouse monoclonal antibody; also called LMH 87 antibody; mAb LMH 87; source: clonal supernatants in the screening ELISA; copies: 2 + 2
B2: LMH 85 (antibody, V domains shown)
VH: QVQLQQSGAELAKPGASVKMSCKASGYTFIIYWIHWIKQRPGQGLEWIGYINPSNDYTEYNQKFKDKATLTADKSSNTAFMQLSSLTSEDSAVYYCARDSYDYDDGAYAMDYWGQGTSVTVSS
VL: QIVLSQSPAILSASPGEKVTMTCRASSGVNYMHWYQQKPGSSPKPWIYATSNLASGVPARFSGSGSGTSYSLTISRVEAEDAATYYCQQWISHPFTFGSGTKLEIK
notes: VH domain; heavy chain constant region of a mouse IgG; VL domain; light chain constant region of a mouse antibody; Intact bivalent mouse monoclonal antibody, agonist of c-MET; also called LMH 85 antibody; mAb LMH 85; source: clonal supernatants in the screening ELISA; copies: 2 + 2

How the values were obtained:
[1] = target: T1, c-MET extracellular domain (Homo sapiens, UniProt P08581); assay: SPR; BIAcore; c-MET extracellular domain immobilized, different concentrations of purified LMH antibodies (intact IgG); conditions: both partners purified
T1 construct: c-MET extracellular domain; also called immobilized c-MET extracellular domain

[2] = target: T2, c-MET on the surface of A549 lung cancer cells (Homo sapiens (A549), UniProt P08581); assay: flow cytometry on cells; A549 cells, 10 µg/ml of each LMH antibody in 1% HSA/PBS, 1 h at 4°C; anti-mouse IgG-PE secondary; conditions: one partner purified
T2 construct: c-MET, the receptor for hepatocyte growth factor/scatter factor, as expressed on cells; also called surface c-MET; c-MET receptor; source: endogenous, on A549 cells (U87MG cells in one down-regulation assay)

[3] = target: T3, mature c-MET (disulphide-linked α/β heterodimer) (Homo sapiens (A549), UniProt P08581); assay: co-IP; immunoprecipitation of endogenous c-MET from A549 lysates (Triton X-100 lysis buffer) with the LMH antibody; membranes blotted with mAb 25H2; conditions: one partner purified
T3 construct: c-MET α-chain, extracellular 50 kDa product of furin cleavage of the precursor; c-MET β-chain, extracellular/intracellular 145 kDa product of furin cleavage of the precursor, contains the TK domain; Detected in the immunoprecipitates by the 145 kDa β-chain band (mAb 25H2); also called mature receptor; source: endogenous, A549 lysate

T2 sequence (P08581 25-1390): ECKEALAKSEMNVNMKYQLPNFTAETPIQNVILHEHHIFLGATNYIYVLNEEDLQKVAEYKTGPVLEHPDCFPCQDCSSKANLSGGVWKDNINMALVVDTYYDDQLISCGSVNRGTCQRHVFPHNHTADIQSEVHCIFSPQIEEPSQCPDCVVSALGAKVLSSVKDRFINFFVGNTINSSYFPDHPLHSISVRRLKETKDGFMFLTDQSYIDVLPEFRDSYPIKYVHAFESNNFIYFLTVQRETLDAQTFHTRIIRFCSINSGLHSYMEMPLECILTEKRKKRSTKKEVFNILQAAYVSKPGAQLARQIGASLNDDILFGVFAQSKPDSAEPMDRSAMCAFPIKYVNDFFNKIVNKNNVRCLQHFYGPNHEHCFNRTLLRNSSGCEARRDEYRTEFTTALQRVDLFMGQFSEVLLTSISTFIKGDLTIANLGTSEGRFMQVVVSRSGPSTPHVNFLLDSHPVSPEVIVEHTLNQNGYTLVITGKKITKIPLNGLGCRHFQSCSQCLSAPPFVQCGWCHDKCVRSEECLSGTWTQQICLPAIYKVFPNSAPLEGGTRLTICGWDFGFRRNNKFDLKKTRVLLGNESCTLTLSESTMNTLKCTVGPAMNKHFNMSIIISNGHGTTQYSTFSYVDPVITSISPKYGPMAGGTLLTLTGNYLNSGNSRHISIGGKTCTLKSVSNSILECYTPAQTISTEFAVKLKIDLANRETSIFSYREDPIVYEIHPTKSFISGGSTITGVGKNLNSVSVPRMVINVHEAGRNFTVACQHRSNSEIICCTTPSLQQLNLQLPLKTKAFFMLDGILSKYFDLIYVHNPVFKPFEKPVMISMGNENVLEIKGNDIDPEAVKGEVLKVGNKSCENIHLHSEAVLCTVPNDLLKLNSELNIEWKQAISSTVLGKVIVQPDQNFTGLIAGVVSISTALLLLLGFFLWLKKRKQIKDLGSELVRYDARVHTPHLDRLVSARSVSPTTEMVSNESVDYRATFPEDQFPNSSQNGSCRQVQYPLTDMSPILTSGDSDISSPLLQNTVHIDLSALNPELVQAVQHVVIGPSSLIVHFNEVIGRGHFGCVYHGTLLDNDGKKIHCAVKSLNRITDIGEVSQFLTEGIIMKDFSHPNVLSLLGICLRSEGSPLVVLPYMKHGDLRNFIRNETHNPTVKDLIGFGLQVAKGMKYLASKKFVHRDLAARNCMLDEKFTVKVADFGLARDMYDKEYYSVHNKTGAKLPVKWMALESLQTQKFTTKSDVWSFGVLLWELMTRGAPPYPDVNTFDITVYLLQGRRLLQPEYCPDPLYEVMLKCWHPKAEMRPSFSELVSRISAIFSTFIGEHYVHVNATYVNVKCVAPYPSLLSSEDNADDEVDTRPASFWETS
T1 sequence (P08581 25-932): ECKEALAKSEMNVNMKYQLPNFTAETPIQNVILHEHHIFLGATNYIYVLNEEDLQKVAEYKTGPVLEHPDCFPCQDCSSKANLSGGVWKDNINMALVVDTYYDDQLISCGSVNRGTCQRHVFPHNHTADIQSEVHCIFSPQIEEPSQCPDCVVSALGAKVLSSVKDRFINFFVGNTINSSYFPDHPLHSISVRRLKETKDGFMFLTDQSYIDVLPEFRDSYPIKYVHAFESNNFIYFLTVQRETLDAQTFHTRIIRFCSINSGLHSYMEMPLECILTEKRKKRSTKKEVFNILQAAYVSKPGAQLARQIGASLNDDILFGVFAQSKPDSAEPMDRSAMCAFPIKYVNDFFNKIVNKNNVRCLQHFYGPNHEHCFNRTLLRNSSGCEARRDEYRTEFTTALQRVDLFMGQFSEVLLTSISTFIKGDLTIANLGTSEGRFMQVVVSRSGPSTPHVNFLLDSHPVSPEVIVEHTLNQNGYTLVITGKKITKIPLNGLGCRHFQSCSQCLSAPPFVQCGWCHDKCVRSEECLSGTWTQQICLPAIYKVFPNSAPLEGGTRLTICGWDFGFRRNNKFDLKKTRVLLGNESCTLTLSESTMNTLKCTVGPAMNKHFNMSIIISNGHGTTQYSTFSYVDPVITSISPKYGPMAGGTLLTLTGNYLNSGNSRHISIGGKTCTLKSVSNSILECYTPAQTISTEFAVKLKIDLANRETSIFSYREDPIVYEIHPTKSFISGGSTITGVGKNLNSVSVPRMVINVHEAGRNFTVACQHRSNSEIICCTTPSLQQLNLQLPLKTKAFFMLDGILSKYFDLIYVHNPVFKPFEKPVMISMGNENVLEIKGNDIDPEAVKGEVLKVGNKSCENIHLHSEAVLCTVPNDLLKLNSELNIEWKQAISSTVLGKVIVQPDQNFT

| Binder | Kd [1] [nM] | binding result [2] | binding result [3] |
| --- | --- | --- | --- |
| B1 | 2.6 | – | – |
| B2 | – | binds | binds |
